# Assay results as given in patent US20090060919A1 (AstraZeneca / MedImmune, published 2009).
# Where two headings read alike, the source gives them in different places.
# What was measured:
# [1] = target: T1, human IgEλ (U266 derived) (human, UniProt P01854-1 1-428); assay: cell-based or functional assay
# [2] = target: T1, human IgEλ (U266 derived); assay: flow cytometry: inhibition of IgE binding to CD23 on IM9 cells
# Protocol: Antibodies were evaluated for inhibition of the IgE/CD23 interaction. […] In brief, titrations of the test IgG were mixed with IgE prior to incubation with 1M9 cells.
# Assay plates were incubated on ice for 20 minutes in the dark before centrifuging at 2000 rpm for 2 minutes and washing with 2×200 uL of Flow buffer as described above. Cells were resuspended in 100 uL Cell Fix (BD biosciences) and analysed using a FACSCalibur (BD Biosciences) to detect FL2 staining.
# [3] = target: T1, human IgEλ (U266 derived); assay: SPR (BIAcore 2000): IgG captured on protein G', IgE as analyte, bivalent analyte model; geomean
# Protocol: (§1) In brief, Protein G′ (Sigma Aldrich, P4689) was covalently coupled to the surface of a CM5 sensor chip using standard amine coupling reagents according to manufacturer's instructions (BIAcore). […] The resulting sensorgrams were evaluated using BIA evaluation 3.1 software and fitted to a bivalent analyte model, to provide relative binding data.
# [4] = target: T1, human IgEλ (U266 derived); assay: cell-based or functional assay; remark: listed apart in the source
# [5] = target: T1, human IgEλ (U266 derived); assay: SPR (BIAcore 2000): IgG captured on protein G', IgE as analyte, bivalent analyte model; geomean; remark: listed apart in the source
# Protocol: as §1
# human IgE [6] = target: T2, human IgE (human, UniProt P01854-1 1-428); assay: KinExA
# T2 construct: lead-isolation RBL-ER51 assays: Calbiochem or U266-derived; also called IgE (Calbiochem or U266-derived); purified human IgE
# T2 sequence (P01854 other isoform, or with tags, fused parts or gaps): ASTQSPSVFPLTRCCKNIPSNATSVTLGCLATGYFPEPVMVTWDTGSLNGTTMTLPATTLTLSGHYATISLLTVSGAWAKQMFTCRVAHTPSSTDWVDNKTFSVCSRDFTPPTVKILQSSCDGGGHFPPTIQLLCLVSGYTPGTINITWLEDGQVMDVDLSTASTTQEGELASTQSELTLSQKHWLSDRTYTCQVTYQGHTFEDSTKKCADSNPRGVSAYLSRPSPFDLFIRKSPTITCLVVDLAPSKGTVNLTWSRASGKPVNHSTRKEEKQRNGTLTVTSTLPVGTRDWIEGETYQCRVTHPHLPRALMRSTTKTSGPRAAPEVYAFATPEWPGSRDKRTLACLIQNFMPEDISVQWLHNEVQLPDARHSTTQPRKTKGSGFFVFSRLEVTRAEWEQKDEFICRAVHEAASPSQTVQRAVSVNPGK
# human IgE [7] = target: T2, human IgE; assay: cell-based or functional assay
# IgE in human serum = target: T3, IgE in human serum (human, UniProt P01854-1 1-428); assay: ELISA: free serum IgE captured on coated FcERI-Fc-His after mixing serum with antibody; representative experiment
# T3 construct: also called IgE in serum; free IgE
# T3 sequence (P01854 other isoform, or with tags, fused parts or gaps): as above
# Protocol: Serum samples were prepared from blood samples from human donors. […] To reduce background binding, plates were subsequently incubated with 200 μl/well of block buffer consisting of PBS containing 0.5% BSA, incubated at room temperature for 2 hours, and washed three times with PBST as described above. […] The plates were sealed and samples incubated at room temperature for 2 hours. To remove unbound sample, plates were washed three times with PBST as described. […] The plates were then sealed again, and incubated for 1 hour at room temperature. […] The conjugate was diluted 1:25000 in PBST, 150 μl added per well, the plates sealed, and incubated for 1 hour at room temperature. The plates were then washed three times with PBST as described. TMB-substrate solution (DAKO Substrate-Chromogen, No. S1599), 150 μl/well, was then added to each well and the plates incubated for 10 minutes at room temperature.
# T1 sequence (P01854 other isoform, or with tags, fused parts or gaps): as above
"RBL-ER51 calcium signalling IC50 (Geomean), Human IgE [1] [nM]",IC50 [2] [nM],Kd [3] [nM],"RBL-ER51 calcium signalling IC50 (Geomean), Human IgE [4] [nM]",Kd [5] [nM],Binder,further results
0.112,16.5,2.6,–,–,"Antibody 8 IgG (antibody, V domains shown, Whole human IgG (section 1.4: IgG1)) VH: QVQLVQSGAEVKKPGATVKLSCKVYGYIFTDYNIYWVRQAPGKGLEWMGLIDPDNGETFYAEKFQGRATMTADTSSDRAYMELTSLTFEDTATYYCATVLGRWIKGGYDYWGRGTLVTVSS VL: QSVLTQPPSVSGAPGQRVTISCTGSSSNIGAGYDVHWYQQLPGTAPKLLIYDNFNRPSGVPDRFSGSKSGTSASLAIIGLQTEDEADYYCQSYDSPTHTSPFGTGTKLTVL",–
–,–,–,0.084,1.5,"Antibody 11 GL IgG (antibody, V domains shown, Germlined IgG) VH: EVQLVQSGAEVKKPGATVKISCKVYGYIFTDYNIYWVRQAPGKGLEWMGLIDPDNGETFYAEKFQGRATMTADTSSDRAYMELSSLRFEDTAVYYCATVMGKWIKGGYDYWGRGTLVTVSS VL: QSVLTQPPSVSGAPGQRVTISCTGSSSNIGAGYDVHWYQQLPGTAPKLLIYDNFNRPSGVPDRFSGSKSGTSASLAITGLQAEDEADYYCQSYDSPTLTSPFGTGTKLTVL",–
0.069,23,1.6,–,–,"Antibody 11 IgG (antibody, V domains shown, Whole human IgG (section 1.4: IgG1)) VH: QVQLVQSGAEVKKPGATVKLSCKVYGYIFTDYNIYWVRQAPGKGLEWMGLIDPDNGETFYAEKFQGRATMTADTSSDRAYMELTSLTFEDTATYYCATVMGKWIKGGYDYWGRGTLVTVSS VL: QSVLTQPPSVSGAPGQRVTISCTGSSSNIGAGYDVHWYQQLPGTAPKLLIYDNFNRPSGVPDRFSGSKSGTSASLAIIGLQTEDEADYYCQSYDSPTLTSPFGTGTKLTVL","Kd (human IgE [6]): 0.0063 nM; induction of IgE positive human B cells (intracellular IgE, flow cytometry), IC50 (human IgE [7]): 1.6 nM; β-hexosaminidase release of LAD2 mast cells, IC50 (human IgE [7]): 0.04 nM; IC50 (IgE in human serum): 0.202 nM"

# The remaining lines, values behind:
Binder,"RBL-ER51 calcium signalling IC50 (Geomean), Human IgE [1] [nM]",IC50 [2] [nM],Kd [3] [nM],"RBL-ER51 calcium signalling IC50 (Geomean), Human IgE [4] [nM]",Kd [5] [nM],further results
"Antibody 1 IgG (antibody, V domains shown, IgG1 or IgG2 vectors named; also called parent antibody) VH: QVQLVQSGAEVKKPGATVKLSCKVYGYIFTDYNIYWVRQAPGKGLEWMGLIDPDNGETFYAEKFQGRATMTADTSSDRAYMELTSLTFEDTATYYCATVLHRRLKGGYDYWGRGTLVTVSS VL: QSVLTQPPSVSGAPGQRVTISCTGSSSNIGAGYDVHWYQQLPGTAPKLLIYDNFNRPSGVPDRFSGSKSGTSASLAIIGLQTEDEADYYCQSYDSSLSGSLFGTGTKLTVL",–,16,–,–,–,–
"Antibody 8 GL IgG (antibody, V domains shown, Germlined IgG) VH: EVQLVQSGAEVKKPGATVKISCKVYGYIFTDYNIYWVRQAPGKGLEWMGLIDPDNGETFYAEKFQGRATMTADTSSDRAYMELSSLRFEDTAVYYCATVLGRWIKGGYDYWGRGTLVTVSS VL: QSVLTQPPSVSGAPGQRVTISCTGSSSNIGAGYDVHWYQQLPGTAPKLLIYDNFNRPSGVPDRFSGSKSGTSASLAITGLQAEDEADYYCQSYDSPTHTSPFGTGTKLTVL",–,–,–,0.085,2.5,–
